In PMC3263374:

Molecular target: ApoE 130-149 (Homo sapiens) (UniProt P02649)
Test: NMR
Conditions: modification not given

ApoE 130-149 (Homo sapiens), sequence (P02649 130-149): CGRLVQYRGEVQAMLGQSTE

Kd [µM] | Substance
730 | LDLR LA5 (in LA45), P01130
405 | LDLR LA4 (in LA45), P01130
